Patent US20240035010, “COMPOSITIONS COMPRISING A VARIANT POLYPEPTIDE AND USES THEREOF” (Arbor Biotechnologies, Inc., published 2024)

Target: T1, variant nuclease SEQ ID NO: 53 (P14R, D32R, I61R, E311R, T338G, E736G)
T1 chain: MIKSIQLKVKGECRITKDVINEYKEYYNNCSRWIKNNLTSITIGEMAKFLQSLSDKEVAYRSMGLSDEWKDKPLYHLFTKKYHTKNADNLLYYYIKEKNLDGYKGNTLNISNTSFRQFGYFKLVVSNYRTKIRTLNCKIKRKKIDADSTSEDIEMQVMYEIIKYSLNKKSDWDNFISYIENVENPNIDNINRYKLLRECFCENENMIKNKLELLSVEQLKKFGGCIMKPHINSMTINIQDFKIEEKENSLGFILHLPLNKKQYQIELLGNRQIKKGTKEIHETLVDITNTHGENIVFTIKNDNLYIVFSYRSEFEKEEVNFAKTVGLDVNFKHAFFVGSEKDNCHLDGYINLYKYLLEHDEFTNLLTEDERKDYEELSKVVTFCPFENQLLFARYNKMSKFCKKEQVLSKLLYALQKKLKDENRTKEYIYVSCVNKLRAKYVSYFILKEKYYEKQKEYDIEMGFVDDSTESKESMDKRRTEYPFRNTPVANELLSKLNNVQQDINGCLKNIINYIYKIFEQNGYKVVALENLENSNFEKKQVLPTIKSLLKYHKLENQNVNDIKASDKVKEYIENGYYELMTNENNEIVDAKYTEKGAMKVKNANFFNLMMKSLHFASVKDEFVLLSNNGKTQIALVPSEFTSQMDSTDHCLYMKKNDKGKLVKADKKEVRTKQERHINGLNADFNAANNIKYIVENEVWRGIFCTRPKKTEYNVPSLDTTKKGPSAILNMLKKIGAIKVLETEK
Test: cell_activity; nearly 0.6; HEK293T; PAM 5'-TTTG-3'
Conditions: tags: pcDNA3.1 expression
Description: Approximately 16 hours prior to transfection, 25,000 HEK293T cells in DMEM/10% FBS+Pen/Strep (D10 media) were plated into each well of a 96-well plate. On the day of transfection, the cells were 70-90% confluent. For each well to be transfected, a mixture of Lipofectamine 2000™ and Opti-MEM™ was prepared and incubated at room temperature for 5 minutes (Solution 1). After incubation, the Lipofectamine 2000™:Opti-MEM™ mixture was added to a separate mixture containing nuclease plasmid, RNA guide plasmid, and Opti-MEM™ (Solution 2). In the case of negative controls, the RNA guide plasmid was not included in Solution 2. Solutions 1 and 2 were mixed by pipetting up and down, then incubated at room temperature for 25 minutes. Following incubation, the Solution 1 and 2 mixture was added dropwise to each well of a 96-well plate containing the cells. Approximately 72 hours post transfection, cells were trypsinized by adding TrypLE™ to the center of each well and incubating at 37° C. for approximately 5 minutes. D10 media was then added to each well and mixed to resuspend cells. The resuspended cells were centrifuged at 500 g for 10 minutes to obtain a pellet, and the supernatant was discarded. The cell pellet was then resuspended in QuickExtract™ buffer (Lucigen®), and cells were incubated at 65° C. for 15 minutes, 68° C. for 15 minutes, and 98° C. for 10 minutes. […]

B1: VEGFA_T1 crRNA ; VEGFA_T1 target (ssRNA ; dsDNA)
RNA: CCUGUUGUGAAUACUCUUUUAUAGGUAUCAAACAACUCCUGGUGAAAGGCAGCCCU
DNA 1: TCCTGGTGAAAGGCAGCCCT
DNA 2: AGGGCTGCCTTTCACCAGGA
- activity: ~0.6 indel ratio
